Here are results for one molecule from article doi:10.1101/2024.08.29.610268.

In this data set the target is NELF complex WT (NELF-A/B/D/E) (human, UniProt Q9H3P2;Q8WX92;Q8IXH7;P18615 1-528;1-628;1-590;1-380). Briefly: fluorescence anisotropy. Background: Polarisation of emitted light reports the rotation of a fluorescent probe.

With CCAGAUCUGAGCCUGGGAGCUCUCUGG (structured_RNA) [HIV-1 TAR stem loop], the binding result was “binds”.
